The target of assay [1] is T1, human IgE (myeloma IgE) (human, UniProt P01854-1 1-428).
T1 construct: Myeloma IgE coupled by amine coupling to a CM5 chip for Biacore; Also used to sensitize human FcεRIα-expressing 3D10 cells; also called PS IgE
The assay can be described thus: SPR, Biacore T2000, myeloma IgE amine-coupled to CM5 chip, antibody in solution. As to the method: (§1) The complementary determining region (CDR) sequences and the specificity-determining residues (SDR) of each heavy chain variable (VH) and light chain variable (VL) regions were engrafted into the framework (FR) regions of the most homologous human germline sequences. All the recombinant mAbs were transiently expressed in 293 cells in small scale (50 ml transfection volume) and purified by protein A affinity column for downstream application. The humanized mAbs not expressing or expressing <1 μg/ml recombinant antibody were eliminated. The affinity of humanized LAAIGE (hLAAIGE) to […] was determined by the surface plasmon resonance using Biacore T2000 instrument (Biacore AB, Uppsala, Sweden) with a CM5 sensor chip coupled with myeloma IgE by amine coupling. The purified hLAAIGEs were dissolved in HBS-EP assay buffer containing 0.15 M NaCl, 10 mM HEPES, pH 7.4, 3 mM EDTA, and 0.005% polysorbate 20. The solutions traversed the sensors at a flow rate of 50 μl/minute for binding analysis. Binding results were expressed in resonance units. Kinetic studies were analyzed with BIAevaluation Software Version 4.1. […] The binding of the selected hLAAIGE to the cell surface-bound IgE was confirmed using the human FcεRIα expressing 3D10 cells sensitized with myeloma IgE.
A general note: Surface plasmon resonance follows binding to a sensor surface in real time, without labels.

The target of assay [2] is T1, human IgE (myeloma IgE). The assay can be described thus: SPR (Biacore method); range told of the group, this end tied to H6.2 by paragraph 147. As to the method: as §1
Assay [3] has as its target T1, human IgE (myeloma IgE). The assay can be described thus: SPR, Biacore T2000; range told of the chosen antibodies, this end tied to S91 by paragraph 147. As for the experimental part: as §1
For assay [4], the target named is T1, human IgE (myeloma IgE). Description: binding affinity for human IgE; method not stated for the founders.
In assay [5] the target is T1, human IgE (myeloma IgE). Description: SPR (Biacore method); range told of the group, this end tied to E14 by paragraph 147. As for the experimental part: as §1

Changes are numbered by the printed parent chain.

T1 sequence (P01854 other isoform, or with tags, fused parts or gaps): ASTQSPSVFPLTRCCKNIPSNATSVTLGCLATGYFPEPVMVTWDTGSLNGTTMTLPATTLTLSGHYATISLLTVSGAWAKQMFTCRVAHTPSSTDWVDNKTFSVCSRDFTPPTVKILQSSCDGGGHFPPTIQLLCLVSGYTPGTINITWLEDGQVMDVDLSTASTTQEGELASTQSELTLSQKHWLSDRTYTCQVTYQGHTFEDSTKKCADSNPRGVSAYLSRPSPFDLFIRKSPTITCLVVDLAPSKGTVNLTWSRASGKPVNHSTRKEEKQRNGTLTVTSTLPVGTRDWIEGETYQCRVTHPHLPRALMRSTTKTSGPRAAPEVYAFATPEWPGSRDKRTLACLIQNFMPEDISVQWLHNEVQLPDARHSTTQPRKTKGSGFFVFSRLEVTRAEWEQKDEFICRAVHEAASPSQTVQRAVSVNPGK

B1: hLAAIGE H6.2 (antibody, human IgG1, lambda, V domains shown)
VH: QVQLGQSGGGVVQPGRSLRLSCAASGFTFSNYLIEWVRQAPGKGLEWVAVINPGSGFTKYNEKFKQRFTISRDNSKNTLYLQMNSLRAEDTAVYYCAREDVYSWFAYWGQGTLVTVSA
VL: QSALTQPASVSGSPGQSITISCTRASESVDSYGNSFMHQHHPGKAPKLMIYEVRTSNLESSNRFSGSKSGNTASLTISGLQAEDEADYYCSSQQSYEDPFTFGSGTKLGQPK
notes: The entries are labelled 'VH' and 'VL' but are full heavy (human IgG1) and lambda light chains; Humanized, derived from Founder P6.2
Usually Kd stands for the concentration at which binding is half-saturated. Low readings indicate higher affinity, high ones lower affinity. For the molecule B1, the figures for the Kd with human IgE (myeloma IgE) [1] and with human IgE (myeloma IgE) [2] were around 50000 nM and 50000 nM, respectively.

B2: hLAAIGE S91 (antibody, human IgG1, lambda, V domains shown)
VH: QVQLVQSGAEVKKPGASVKVSCKASGYTFTSYGISWVRQAPGQGLEWMGWISAYNGNTNYAQKLQGRVTMTTDTSTSTAYMELRSLRSDDTAVYYCARVSSWPYWYFDLWGRGTLVTVSS
VL: QSAVTQPPSASGSPGQSVTISCTGTSSDVGAYDYVSWYQQHPGKAPKLMIYEVSKRPSGVPDRFSGSKSGNTASLTVSGLQAEDEADYYCSSYAGRVDVFGGGTKLTVLG
notes: The entries are labelled 'VH' and 'VL' but are full heavy (human IgG1) and lambda light chains; Humanized, derived from Founder F11
B2: the Kd with human IgE (myeloma IgE) [3] stood at 7000 nM; in the assay with human IgE (myeloma IgE) [1] it was 7410 nM.

B3: Founder P6.2 (low affinity anti-human IgE founder mouse mAb) (antibody, V domains shown)
VH: QVQLQQSGAELVRPGTSVKVSCKASGYAFTNYLIEWVKQRPGQGLEWIGVINPGSGFTKYNEKFKGKATLTADKSSSTAYMHLSSLTSDDSAVYFCAREDVYSWFAYWGQGTLVTVSA
VL: DIVLTQSPASLAVSLGQRATISCRASESVDSYGNSFMHWYQQKPGQPPKLLIYRTSNLESGIPARFSGSGSRTDFTLTINPVEADDVATYFCQQSYEDPFTFGSGTKLEIK
notes: Mouse hybridoma mAb
Turning to B3, the Kd with human IgE (myeloma IgE) [4] was around 2540 nM.

B4: hLAAIGE E14 (antibody, human IgG1, kappa, V domains shown)
VH: QVQLVQSGSELKKPGASVKVSCKASGYTFTNYGMNWVRQAPGQGLEWMGWINTYTGEPTYADDFKGRFVFSLDTSVSTAYLQISSLKAEDTAVYYCARGAASHTMDYWGQGTTVTVSS
VL: DIVMTQSPDSLAVSLGERATINCRASQSVSTSAHSYMHWYQQKPGQPPKLLIYYASNLESGVPDRFSGSGSGTDFTLTISSLQAEDVAVYYCQHSWEIPWTFGQGTKLEIKR
notes: The entries are labelled 'VH' and 'VL' but are full heavy (human IgG1) and kappa light chains; Humanized, derived from Founder E17
B4: the figures for the Kd in the assay with human IgE (myeloma IgE) [1] and in the assay with human IgE (myeloma IgE) [5] were 67.2 nM and 70 nM, respectively.

B5: hLAAIGE E23 (antibody, human IgG1, kappa, V domains shown)
VH: B4 VH
VL: B4 VL with A33S, H34Y, E59K, S60A
notes: as for B4
B5 returned a Kd with human IgE (myeloma IgE) [1] of 109 nM.

B6: hLAAIGE E17 (antibody, human IgG1, kappa, V domains shown)
VH: B4 VH
VL: B4 VL with A33S, S35A
notes: Humanized clone E17, a different molecule from the mouse Founder E17; The entries are labelled 'VH' and 'VL' but are full heavy (human IgG1) and kappa light chains
B6 came in with a Kd with human IgE (myeloma IgE) [1] of 140 nM.

B7: hLAAIGE E59 (antibody, human IgG1, kappa, V domains shown)
VH: B4 VH
VL: B4 VL with A33S
notes: Humanized, derived from Founder E17; Expressed in 293 cells
Take B7: binding with human IgE (myeloma IgE) [1] was characterised by a dissociation constant (Kd) of 164 nM.

The values above are taken from patent publication US20230090487A1 (published 2023).
